# Measurements: patent US20240101677A1 (Innovent, published 2024)
# What was measured:
# [1] = biological target: T1, CD16A on human primary NK cells (human, UniProt P08637 17-254); assay: flow cytometry (MFI, PE-anti-human Fc) on human primary NK cells, donor SLB190084
# T1 construct: whole, on cells; also called primary natural killer (NK) cells
# Method: (§1) Human PBMC cells were thawed (Sailybio, SLB190084 & SLB190071), and NK cells were enriched and isolated using a human NK cell enrichment kit (Stemcell, 19055) and centrifuged at 400 g for 5 min. The supernatant was removed, and the cells were resuspended in PBS. After counting, the cells were adjusted to a density of 2×10⁶ cells/mL, and the cell suspension was added to a U-bottom 96-well plate at 100 μL/well. Then, the test antibody was added to make a final concentration of 100 nM, and subjected to a 6-fold dilution to obtain 10 gradients. The mixture was left to stand on ice for a reaction for 1 h. The mixture was centrifuged at 300 g for 5 min, and the supernatant was removed. The cells were washed once with PBS. The mixture was centrifuged at 300 g for 5 min, and PBS was removed. 100 μL of PE-anti-human Fc antibody (Southern Biotech, 2040-09) diluted at a ratio of 1:200 was added to each well. The mixture was incubated on ice for 30 min in the dark. The mixture was centrifuged at 400 g for 5 min, and the supernatant was removed. The cells were washed twice with PBS, and then resuspended in 100 μL of PBS. A fluorescence shift assay was performed by using a flow cytometer (BD, Facscelesta). […] The control antibody used in FIGS. 2A and 2B was the same as that in Example 5.
# [2] = biological target: T2, human CD16A (type 158V) on GS-CHO cells (human, UniProt P08637 17-254); assay: flow cytometry (MFI, PE-anti-human Fc) on GS-CHO cells expressing human CD16A (type 158V)
# T2 construct: whole, on cells; also called GS-CHO cells expressing human CD16A
# Method: After counting, the cells were adjusted to a density of 2×10⁶ cells/mL, and the cell suspension was added to a U-bottom 96-well plate at 100 μL/well. […] The mixture was centrifuged at 300 g for 5 min, and the supernatant was removed. The cells were washed once with PBS. The mixture was centrifuged at 300 g for 5 min, and PBS was removed. 100 μL of PE-anti-human Fc antibody (Southern Biotech, 2040-09) diluted at a ratio of 1:200 was added to each well. The mixture was incubated on ice for 30 min in the dark. The mixture was centrifuged at 400 g for 5 min, and the supernatant was removed. The cells were washed twice with PBS, and then resuspended in 100 μL of PBS. A fluorescence shift assay was performed by using a flow cytometer (BD, Facscelesta).
# [3] = biological target: T1, CD16A on human primary NK cells; assay: flow cytometry (MFI, PE-A) on human primary NK cells, donor SLB190071
# Method: as §1
# In this example, the binding of anti-CD16A/HER2 and anti-CD16A/BCMA bispecific antibodies (subjected to gradient dilution) of the present invention to primary NK cells was assayed by flow cytometry. The assay method was the same as that in Example 6.
# T1 sequence (P08637 17-254): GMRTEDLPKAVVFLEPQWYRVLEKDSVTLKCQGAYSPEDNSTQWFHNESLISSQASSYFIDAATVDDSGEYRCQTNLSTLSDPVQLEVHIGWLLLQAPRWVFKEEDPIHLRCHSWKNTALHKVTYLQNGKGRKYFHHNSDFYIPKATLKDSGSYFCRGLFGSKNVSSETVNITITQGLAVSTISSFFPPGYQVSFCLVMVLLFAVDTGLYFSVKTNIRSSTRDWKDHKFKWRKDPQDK
# T2 sequence (P08637 17-254 F176V): as the sequence (P08637 17-254) above, with F160V counted along it
Binder,binding result [1],binding result [2],EC50 [3] [nM]
"Isotype-IgG1-Fc-LALA (antibody, also called anti-Hen Egg Lysozyme (HEL) antibody; negative control) variable region (heavy or light not stated; listed first): EVRLLESGGGLVQPGGSLRLSCAASGFTFSNYAMGWVRQAPGKCLEWVSAISGSGGSTYYADSVKGRFTTSRDDSKNALYLQMNSLRAEDTAVYYCARGGPGWYAADVWGQGTTVTVSS variable region (heavy or light not stated; listed second): DIQMTQSPSSLSASVGDRVTITCRASQSISSYLNWYQQKPGKAPKLLIYAASSLQSGVPSRFSGSGSGTDFTLTISSLQPEDFATYYCQQADLPAFAFGCGTKVEIK",no binding (tested: log 2 (100 nM)),no binding (tested: log 2.8 (about 600 nM)),
"16A067 (bispecific antibody, human IgG1, kappa, L234A L235A, 1+1 knob-into-hole format, sdAb-Fc arm and Fab-Fc arm, LALA; also called anti-CD16A/BCMA bispecific antibody (Y88A3 x ADI384-56)) heavy 1: not shown heavy 2: EVQLVESGGGLVQPGRSLRLSCAASGFTFGDYAIHWVRQAPGKGLEWVSGISWDSSSIAYADSVKGRFTISRDNAKNSLYLQMNSLRAEDTAVYYCAKDSPVRDSFGSIAFDIWGQGTMVTVSSASTKGPSVFPLAPSSKSTSGGTAALGCLVKDYFPEPVTVSWNSGALTSGVHTFPAVLQSSGLYSLSSVVTVPSSSLGTQTYICNVNHKPSNTKVDKKVEPKSCDKTHTCPPCPAPEAAGGPSVFLFPPKPKDTLMISRTPEVTCVVVDVSHEDPEVKFNWYVDGVEVHNAKTKPREEQYNSTYRVVSVLTVLHQDWLNGKEYKCKVSNKALPAPIEKTISKAKGQPREPQVCTLPPSRDELTKNQVSLSCAVKGFYPSDIAVEWESNGQPENNYKTTPPVLDSDGSFFLVSKLTVDKSRWQQGNVFSCSVMHEALHNHYTQKSLSLSPGK light: not shown",,,14.2
"16A068 (bispecific antibody, human IgG1, kappa, L234A L235A, 1+1 knob-into-hole format, sdAb-Fc arm and Fab-Fc arm, LALA; also called anti-CD16A/BCMA bispecific antibody (Y99F6 x ADI384-56)) heavy 1: not shown heavy 2: EVQLVESGGGLVQPGRSLRLSCAASGFTFGDYAIHWVRQAPGKGLEWVSGISWDSSSIAYADSVKGRFTISRDNAKNSLYLQMNSLRAEDTAVYYCAKDSPVRDSFGSIAFDIWGQGTMVTVSSASTKGPSVFPLAPSSKSTSGGTAALGCLVKDYFPEPVTVSWNSGALTSGVHTFPAVLQSSGLYSLSSVVTVPSSSLGTQTYICNVNHKPSNTKVDKKVEPKSCDKTHTCPPCPAPEAAGGPSVFLFPPKPKDTLMISRTPEVTCVVVDVSHEDPEVKFNWYVDGVEVHNAKTKPREEQYNSTYRVVSVLTVLHQDWLNGKEYKCKVSNKALPAPIEKTISKAKGQPREPQVCTLPPSRDELTKNQVSLSCAVKGFYPSDIAVEWESNGQPENNYKTTPPVLDSDGSFFLVSKLTVDKSRWQQGNVFSCSVMHEALHNHYTQKSLSLSPGK light: not shown",,,50.5
"16A070 (bispecific antibody, human IgG1, kappa, L234A L235A, 1+1 knob-into-hole format, sdAb-Fc arm and Fab-Fc arm, LALA; also called anti-CD16A/BCMA bispecific antibody (Y95H1 x ADI384-56)) heavy 1: not shown heavy 2: EVQLVESGGGLVQPGRSLRLSCAASGFTFGDYAIHWVRQAPGKGLEWVSGISWDSSSIAYADSVKGRFTISRDNAKNSLYLQMNSLRAEDTAVYYCAKDSPVRDSFGSIAFDIWGQGTMVTVSSASTKGPSVFPLAPSSKSTSGGTAALGCLVKDYFPEPVTVSWNSGALTSGVHTFPAVLQSSGLYSLSSVVTVPSSSLGTQTYICNVNHKPSNTKVDKKVEPKSCDKTHTCPPCPAPEAAGGPSVFLFPPKPKDTLMISRTPEVTCVVVDVSHEDPEVKFNWYVDGVEVHNAKTKPREEQYNSTYRVVSVLTVLHQDWLNGKEYKCKVSNKALPAPIEKTISKAKGQPREPQVCTLPPSRDELTKNQVSLSCAVKGFYPSDIAVEWESNGQPENNYKTTPPVLDSDGSFFLVSKLTVDKSRWQQGNVFSCSVMHEALHNHYTQKSLSLSPGK light: not shown",,,7.96
"16A069 (bispecific antibody, human IgG1, kappa, L234A L235A, 1+1 knob-into-hole format, sdAb-Fc arm and Fab-Fc arm, LALA; also called anti-CD16A/BCMA bispecific antibody (Y100D6 x ADI384-56)) heavy 1: not shown heavy 2: EVQLVESGGGLVQPGRSLRLSCAASGFTFGDYAIHWVRQAPGKGLEWVSGISWDSSSIAYADSVKGRFTISRDNAKNSLYLQMNSLRAEDTAVYYCAKDSPVRDSFGSIAFDIWGQGTMVTVSSASTKGPSVFPLAPSSKSTSGGTAALGCLVKDYFPEPVTVSWNSGALTSGVHTFPAVLQSSGLYSLSSVVTVPSSSLGTQTYICNVNHKPSNTKVDKKVEPKSCDKTHTCPPCPAPEAAGGPSVFLFPPKPKDTLMISRTPEVTCVVVDVSHEDPEVKFNWYVDGVEVHNAKTKPREEQYNSTYRVVSVLTVLHQDWLNGKEYKCKVSNKALPAPIEKTISKAKGQPREPQVCTLPPSRDELTKNQVSLSCAVKGFYPSDIAVEWESNGQPENNYKTTPPVLDSDGSFFLVSKLTVDKSRWQQGNVFSCSVMHEALHNHYTQKSLSLSPGK light: not shown",,,15.3
